The values that follow come from US20020102268A1.

The data set concerns the target uncleaved bovine spleen PARP (poly(ADP-ribose) polymerase) (UniProt P18493).
UniProt P18493, sequence (P18493 2-1016): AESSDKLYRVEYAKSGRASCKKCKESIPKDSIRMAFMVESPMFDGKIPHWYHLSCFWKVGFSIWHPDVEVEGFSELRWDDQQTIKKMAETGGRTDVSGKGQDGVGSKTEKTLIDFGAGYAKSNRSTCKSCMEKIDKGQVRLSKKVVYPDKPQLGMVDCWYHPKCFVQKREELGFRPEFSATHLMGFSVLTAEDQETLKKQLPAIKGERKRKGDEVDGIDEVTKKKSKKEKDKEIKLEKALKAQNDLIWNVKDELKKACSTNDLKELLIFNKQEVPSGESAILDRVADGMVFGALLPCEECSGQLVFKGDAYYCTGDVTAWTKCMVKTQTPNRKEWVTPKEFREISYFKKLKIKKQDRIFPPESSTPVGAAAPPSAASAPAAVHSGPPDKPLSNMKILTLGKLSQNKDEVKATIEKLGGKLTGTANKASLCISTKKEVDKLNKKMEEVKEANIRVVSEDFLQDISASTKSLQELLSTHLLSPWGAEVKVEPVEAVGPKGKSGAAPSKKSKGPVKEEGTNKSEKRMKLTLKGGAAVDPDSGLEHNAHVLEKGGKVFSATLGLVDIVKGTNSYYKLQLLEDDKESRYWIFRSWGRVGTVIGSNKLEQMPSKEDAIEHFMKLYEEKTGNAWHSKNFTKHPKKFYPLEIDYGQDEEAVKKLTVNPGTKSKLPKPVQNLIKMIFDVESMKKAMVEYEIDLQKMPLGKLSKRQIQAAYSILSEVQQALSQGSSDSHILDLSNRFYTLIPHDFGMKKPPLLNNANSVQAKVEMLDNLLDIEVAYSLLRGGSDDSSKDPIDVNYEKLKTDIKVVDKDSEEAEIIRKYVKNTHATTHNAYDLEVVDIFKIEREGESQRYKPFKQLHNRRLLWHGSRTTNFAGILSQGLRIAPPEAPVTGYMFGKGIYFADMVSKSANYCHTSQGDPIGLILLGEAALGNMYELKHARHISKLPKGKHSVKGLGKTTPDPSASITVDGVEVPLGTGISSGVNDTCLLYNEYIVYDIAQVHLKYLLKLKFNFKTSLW

Turning to recombinant CPP32 (caspase 3), the “cleavage of PARP, seen on Western blot” value was “two bands corresponding to uncleaved and cleaved PARP were visualized in the cleaved sample”.
